Assay [1] addresses LuS-N71-SpyTag (Aquifex aeolicus lumazine synthase nanoparticle with a glycan at N71 and SpyTag at the N-terminus) (Aquifex aeolicus).
Assay [2] concerns the target ferritin-N96-SpyTag (Helicobacter pylori ferritin nanoparticle with a glycan at N96 and SpyTag) (Helicobacter pylori).

Regarding “RSV F-SpyCatcher (respiratory syncytial virus prefusion F 'DS2' trimer with SpyCatcher at the C-terminus)”, the results for the percent of nanoparticle subunits conjugated in assay [1] and in assay [2] were 67% and 85%, respectively.

For the origin of these results see doi:10.1101/2020.06.11.147496.
